Data reported in US8133482B2, “Activatable photodynamic therapy agents” (The Trustees of the University of Pennsylvania, priority 2003, dated 2012).
The star is where a group is joined. Mu = morpholinocarbonyl cap, O=C(N1CCOCC1)*; Dox = doxorubicin

How the values were obtained:
[1] = target: PSA (Homo sapiens, UniProt P07288); details: incubation with enzymatically active PSA, HPLC detection; cited from earlier work
[2] = photophysical properties of pyropheophorbide acid (1O2 yield); type: physicochemical

PSA, sequence (P07288 25-261): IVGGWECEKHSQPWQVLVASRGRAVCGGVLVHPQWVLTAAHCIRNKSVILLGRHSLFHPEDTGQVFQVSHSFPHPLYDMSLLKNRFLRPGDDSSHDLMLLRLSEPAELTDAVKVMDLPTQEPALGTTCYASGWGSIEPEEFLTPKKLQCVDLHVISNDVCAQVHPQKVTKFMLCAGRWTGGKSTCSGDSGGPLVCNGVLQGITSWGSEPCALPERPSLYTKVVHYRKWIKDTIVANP

Compound	hydrolysis by PSA [1]	1O2 yield [2] [%]
Ac-HSSKLQ(SEQ ID NO:13)-Dox (Ac-HSSKLQ-Dox)	unable to hydrolyze	
Mu-HS SKLQ(SEQ ID NO:13)-Leu-Dox (Mu-HSSKLQL-Dox)	resulted in production of Leu-Dox	
C=Cc1c(C)c2cc3nc(c4c5[nH]c(cc6nc(cc1[nH]2)C(C)=C6CC)c(C)c5C(=O)C4)[C@@H](CCC(=O)O)[C@@H]3C [Pyropheophorbide acid, pyropheophorbide acid]		45
